± gives the standard deviation of the averaged measurements.
B1: library; a variant is named by its letters at N, in order (parent)
chain: GCUGUCACCGGUGCUUGGUACGUUAUAUUCAGCCGGUCUGAUGAGUCUNNNNNNAGACGAAACAGC

What was measured:
(6R,S)-folinic acid [1] = variants of: B1; assay: normalized RNA/DNA level without ligand (relative to sTRSVctl = 100) (log10 (% of sTRSVctl)); HEK293T overexpressing SLC46A1; higher = less ribozyme self-cleavage, higher mRNA level; settings: without (6R,S)-folinic acid; ligand present: no
Summary of the method: (§1)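 Library plasmids carrying ribozyme switches linked to mCherry, or to eGFP in some ligand experiments, were transfected into HEK293T at 4 µg per 6-well well, with any ligand added 1 h earlier. Seventy-two hours on, total RNA was extracted with EDTA and reverse-transcribed, amplified, barcoded and sequenced. RNA level was RNA over DNA reads normalized to a spiked-in non-cleaving sequence or to the top sequences, then scaled and log-transformed. The top set was 25 sequences, the transform was ×100 and log10, and sequences needed ≥100 DNA reads.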

(6R,S)-folinic acid [2] = variants of: B1; assay: normalized RNA/DNA level with ligand (relative to sTRSVctl = 100) (log10 (% of sTRSVctl)); HEK293T overexpressing SLC46A1; ligand concentration (+) RNA-Seq: 6 mM; higher = less ribozyme self-cleavage, higher mRNA level; settings: with (6R,S)-folinic acid; ligand present: yes
Summary of the method: as §1

Row | Variant | normalized RNA/DNA level without ligand (log10) ((6R,S)-folinic acid [1]) | normalized RNA/DNA level with ligand (log10) ((6R,S)-folinic acid [2])
1 | ACGAAU | 1.95 ± 0.021 | 2 ± 0.035
2 | ACGAAC | 2.02 ± 0.021 | 2.03 ± 0.044
3 | AUGCGC | 2.017 ± 0.0084 | 2.009 ± 0.018
4 | GCGCAU | 1.9847 ± 0.0014 | 2 ± 0.038
5 | CGAGUC | 2.053 ± 0.0089 | 2.037 ± 0.0081
6 | CGACCU | 2.061 ± 0.0049 | 2.016 ± 0.013
7 | GACAUC | 2.05 ± 0.034 | 2.04 ± 0.082
8 | ACUGAC | 2.002 ± 0.0086 | 1.999 ± 0.0088
9 | UGUGUU | 1.907 ± 0.019 | 1.966 ± 0.019
10 | GAGUAU | 1.982 ± 0.0044 | 2.014 ± 0.02
11 | AUGUUC | 2.0332 ± 0.0018 | 2.01 ± 0.021
12 | ACCAUU | 2.02 ± 0.03 | 2.044 ± 0.0061
13 | AAACCU | 2.0232 ± 0.0015 | 2.03 ± 0.031
14 | GUAUGU | 1.937 ± 0.015 | 1.995 ± 0.013
15 | CGGGCU | 2.09 ± 0.021 | 2.06 ± 0.03
16 | CGGGCA | 2.059 ± 0.0067 | 2.04 ± 0.0044
17 | GUAUAC | 1.9802 ± 0.0015 | 2.02 ± 0.026
18 | GUCACU | 2.02 ± 0.025 | 2.03 ± 0.042
19 | CGAUCA | 2.008 ± 0.0093 | 2.04 ± 0.05

Row | Variant | normalized RNA/DNA level without ligand (log10) ((6R,S)-folinic acid [1]) | normalized RNA/DNA level with ligand (log10) ((6R,S)-folinic acid [2])
20 | CUUAUG | 2.013 ± 0.005 | 2.0211 ± 0.00067
21 | CCAGCG | 1.97 ± 0.025 | 1.99 ± 0.027
22 | CCUGGA | 2.046 ± 0.0022 | 2.068 ± 0.0024
23 | GGGAAU | 2.008 ± 0.0024 | 2.019 ± 0.02
24 | CGCCGU | 2.038 ± 0.0097 | 2.05 ± 0.065
25 | AACCUG | 1.972 ± 0.0045 | 2.02 ± 0.039
26 | GCCGCA | 2.04 ± 0.027 | 2.044 ± 0.019
27 | GGACGG | 2.008 ± 0.015 | 2.04 ± 0.033
28 | ACGCUA | 2.013 ± 0.018 | 2.03 ± 0.06
29 | CCACCU | 2.101 ± 0.015 | 2.07 ± 0.033
30 | GGAUGC | 1.912 ± 0.002 | 1.962 ± 0.015
31 | GGAUGU | 1.972 ± 0.0047 | 2.03 ± 0.052
32 | GGGUCA | 2.078 ± 0.0065 | 2.09 ± 0.053
33 | GGCAUG | 2.064 ± 0.0071 | 2.03 ± 0.033
34 | UUAAGU | 1.996 ± 0.014 | 2.024 ± 0.0034
35 | CCAAGA | 2.0052 ± 0.00077 | 2.038 ± 0.0056
36 | GUACUG | 2.002 ± 0.013 | 2.015 ± 0.017
37 | CAAUCC | 2.023 ± 0.0031 | 2.02 ± 0.049
38 | AUCCUA | 1.987 ± 0.0057 | 2.01 ± 0.079

Row | Variant | normalized RNA/DNA level without ligand (log10) ((6R,S)-folinic acid [1]) | normalized RNA/DNA level with ligand (log10) ((6R,S)-folinic acid [2])
39 | CAACUG | 2.029 ± 0.015 | 2.021 ± 0.016
40 | CCCUAG | 2.018 ± 0.004 | 2.045 ± 0.0096
41 | GUCUAG | 1.97 ± 0.028 | 2.0363 ± 0.0013
42 | AGAAUA | 1.9881 ± 0.00025 | 2.02 ± 0.037
43 | GAUAUC | 2.02 ± 0.018 | 2.03 ± 0.036
44 | GAUCGA | 2.033 ± 0.008 | 2.02 ± 0.036
45 | CAGAAG | 1.925 ± 0.006 | 2.02 ± 0.03
46 | GCUACG | 2.026 ± 0.0068 | 2.065 ± 0.0045
47 | CGGCCA | 2.111 ± 0.021 | 2.058 ± 0.0046
48 | CGACAC | 2.026 ± 0.012 | 2 ± 0.037
49 | GGACCC | 2.045 ± 0.019 | 2.027 ± 0.015
50 | GGCCCU | 2.099 ± 0.012 | 2.061 ± 0.013
51 | GUUCUC | 2.112 ± 0.0075 | 2.076 ± 0.02
52 | UCUCUU | 2.06 ± 0.034 | 2.06 ± 0.059
53 | AGGAAG | 1.89 ± 0.0078 | 2.01 ± 0.043
54 | UGGUUC | 2.01 ± 0.011 | 2.01 ± 0.081
55 | CGUGCU | 2.05 ± 0.012 | 2.05 ± 0.052
56 | CCUCUU | 2.033 ± 0.012 | 2.022 ± 0.0093
57 | UGAGUU | 1.943 ± 0.0073 | 1.99 ± 0.035

From the supplement of paper PMC6757056
